This data set concerns the molecule itself. The data set can be described thus: cross-linking.

B1: CstR (CsoR-like sulfurtransferase repressor), wild type, Staphylococcus aureus strain Newman (natural protein, UniProt Q9XBC0 1-86, looked up)
chain: MNYDKKMINRINRIQGQLNGIIKMMEEGKDCKDVITQISASKSSLQRLMGIIISENLIECVKVAADDEESSQELINEAVNLLVKSK
A word on the stoichiometry N: it is the number of molecules, sites or subunits per partner or assembly. Regarding B1, the “stoichiometry N” value turned out to be 2.

These data come from article PMC4264537 (Molecular microbiology, 2014).
